The record followed here is article PMC6864063, “Molecular basis for the interaction between human choline kinase alpha and the SH3 domain of the c-Src tyrosine kinase” (Scientific Reports, 2019).

The experiment has as its target T1, Choline kinase alpha, full-length (FL) wild type (human, UniProt P35790 1-457).
T1 construct: Choline kinase alpha, unspliced variant ChoKα1, 457 residues, human, UniProt P35790; full length, up to Val457; Cleaved ChoKα constructs were the probes of the pull-downs; also called ChoKα; ChoKα1; source: E. coli Rosetta (DE3)pLysS, purified (HisTrap Ni2+ column, S-200 gel filtration); not shown: His6, N-terminal, cleaved; SUMO, N-terminal, cleaved
The experiment is described as follows: SPR; SH3 domains immobilised on one CM5 chip, ChoKα injected in triplicate, 0.1 to 30 µM, 2 min, PBS pH 7.5, 30 µL/min; steady-state KD from RUmax. The settings on record: both partners purified.

T1 sequence (P35790 whole entry, canonical isoform): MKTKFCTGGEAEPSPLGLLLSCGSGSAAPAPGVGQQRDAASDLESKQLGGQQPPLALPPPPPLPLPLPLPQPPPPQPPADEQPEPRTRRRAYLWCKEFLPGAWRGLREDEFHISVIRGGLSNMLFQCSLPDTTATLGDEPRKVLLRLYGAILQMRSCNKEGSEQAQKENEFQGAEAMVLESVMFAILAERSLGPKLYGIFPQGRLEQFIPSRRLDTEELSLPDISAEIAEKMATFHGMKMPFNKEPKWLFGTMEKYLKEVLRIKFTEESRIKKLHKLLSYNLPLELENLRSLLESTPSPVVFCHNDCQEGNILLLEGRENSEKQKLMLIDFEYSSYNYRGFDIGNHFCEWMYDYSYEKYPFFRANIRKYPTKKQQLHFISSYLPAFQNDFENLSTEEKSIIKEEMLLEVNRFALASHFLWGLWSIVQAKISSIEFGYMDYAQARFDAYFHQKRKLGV

B1: Hck SH3 domain (domain or fragment)
chain: not shown
notes: Src-family kinase Hck, SH3 domain; source: recombinant, purified
With B1, the Kd is 25.9 µM.

As usually defined, the Kd is the equilibrium constant for the complex coming apart. Lower therefore signals higher affinity.
